T1: 重组人Trop2-avi-his抗原蛋白 (recombinant human Trop2 extracellular domain with C-terminal avi-tag and 6×his-tag) (human, UniProt P09758 27-274)
T1 construct: The protein was coated unbiotinylated on the ELISA plate; A form biotinylated at the avi-tag was used for panning and for CAR staining; also called 重组人Trop2蛋白; Trop2蛋白
T1 sequence: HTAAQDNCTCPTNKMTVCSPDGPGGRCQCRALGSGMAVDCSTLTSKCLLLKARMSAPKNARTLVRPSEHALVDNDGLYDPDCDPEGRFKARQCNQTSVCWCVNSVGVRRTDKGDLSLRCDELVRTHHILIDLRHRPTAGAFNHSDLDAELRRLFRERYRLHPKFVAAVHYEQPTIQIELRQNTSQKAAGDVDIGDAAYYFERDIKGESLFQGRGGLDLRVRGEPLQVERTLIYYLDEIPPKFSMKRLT

B1: K2F5 anti-human Trop2 scFv (scFv, V domains shown)
VH: QVQLVQSGAEVKKPGESLTISCKSSGDNFSTNWIGWVRQMPGKGLEWMGIIYPGDSDSRYSPSFEGQVTISADKSISTAYLQWSSLKASDTAMYYCARYQGSTTPFDYWGQGTTVTVSS
VL: not shown
notes: Tested as an scFv in a periplasmic extract of TG1 (pComb3sc phagemid) and detected with anti-HA HRP
B2: L2C9 anti-human Trop2 scFv (scFv, V domains shown)
VH: EVQLLESGGGVVQPGMSLRVSCAASGFTFSNYGMHWVRQAPGKGLEWVGIIWSDGTYTYYGDSVQGRFTISRDNSENTLHLQMNSLRAEDTAVYYCAKSLTPLGGSFRIGDWGQGTLVTVSS
VL: QSVLTQPPSVSGAPGQRVTISCTGSSSNIGAGYDVHWYQQLPGTAPKLLIYDNTNRPSGVPDRFSGSKSGTSASLAITGLQADDEGDYYCQSYDSRLNALVFGGGTKLTVL
notes: as for B1
B3: L3G5 anti-human Trop2 scFv (scFv, V domains shown)
VH: QLQLQESGPGLLKPSETLSLICTVSGGSISSHYWSWIRQTPGKGLEWIGWIHSSGITNYNPSLMGRVTMSVDTSKNQFPLKVNSVTAADTAVYYCARGLRLTDDAFDIWGQGTMVTVSS
VL: QSALTQPASVSGSPGQSITISCTGTSSDVGGYNYVSWYQQHPGKAPKLMIHDVSNRPSGVSNRFFGSKSGNTASLTISGLQAEDEADYYCSSYTSSNTLAFGGGTKLTVL
notes: as for B1
B4: L2C8 anti-human Trop2 scFv (scFv, V domains shown)
VH: EVQLVESGGALVQRGGSLRLSCSASGFSVRNNYITWVRQAPGKGLEWVAIVFPGGSSYHADSVKGRFTISRDLSKNSVYLEMNSLREDDTGVYFCARDSGSPLWRGHFQYWGQGTTVTVSS
VL: QSVLTQPPSVSGAPGQRVTISCTGSSANIGAGYDVHWYQQLPGTAPKLLIYDNNKRPSGIPDRFSGSNSGTSATLGITGLQTGDEADYYCGTWDTSLSAWVFGGGTRLTVL
notes: as for B1

Biological target: T1, 重组人Trop2-avi-his抗原蛋白 (recombinant human …)
Test: ELISA: recombinant human Trop2 coated at 100 ng/well, scFv periplasmic extract, anti-HA HRP detection, OD450

Binder	binding result
B1	binds
B2	binds
B3	binds
B4	binds
